Assays:
[1] = tested on: Il2rg ZFN-2 (synthetic construct); experiment: cell_activity; details: ZFN-1+ZFN-2 pair with LTVEC versus LTVEC alone, fold increase in targeting efficiency; 6 bp spacer; mouse F1H4 ES cells
[2] = tested on: Il2rg ZFN-1 (synthetic construct); experiment: cell_activity; details: ZFN-1+ZFN-2 pair with LTVEC versus LTVEC alone, fold increase in targeting efficiency; 6 bp spacer; mouse F1H4 ES cells

“GTCTTCATTCGCACT (double strand) [Il2rg exon 1 ZFN-2 half-site (anti-sense strand)]” gave an activity [1] of 4 fold.

Work on “AGCTCCAAGGTCCTC (double strand) [Il2rg exon 1 ZFN-1 half-site (sense strand)]” yielded an activity [2] of 4 fold.
